Test results taken from patent publication US11523990B2, “Non-covalent, self-organzing hydrogel matrix for biotechnological applications” (DENOVOMATRIX GMBH, priority 2012, dated 2022).
Square brackets hold non-standard residues; d marks the D form. Ends that are not written are not given here.

Experiments:
Type in all cases: physicochemical
[1] = Rheological gelation measurement (MCR 302, cone-plate); details: for Loss Factor at te / Storage modulus G′ at te: 1 mM KA7-RGDSP-starPEG + 1 mM 5DexS or 0.01 mM 500DexS; for Storage moduli G′: 2 mM KA7-RGDSP-starPEG + 2 mM oligosaccharide, after 110 min of gelation
Description: The oligosaccharides were purchased as given in Table 9 and weighed out as required prior each experiment. Oligosaccharides and peptide-starPEG conjugates were dissolved in PBS (oligosaccharides at five-fold and peptide-starPEG at 1.25-fold of the final concentration) and mixed thoroughly. The samples were applied directly onto the measuring system. First, 80% of the final sample volume was provided by the peptide-starPEG solution. Second, the oligosaccharide solution was added to complete to 100% of sample volume.
The Modular Compact Rheometer MCR 302 (Anton Paar) was used with temperature control unit (P-PTD200+H-PTD200, Anton Paar) and cone-plate measuring system (CP20-0.3 and INSET I-PP20/SS, Anton Paar) for assessment of the mechanical properties of the hydrogels of different composition. The gelation measurement was performed at 20° C. with 1% oscillatory shear strain and a frequency of 1 Hz every 5 min for 2 hours. The data was analyzed with Excel (Excel 2013, Microsoft).
The following experiments studied the mechanical properties of hydrogels formed of different components. FIG. 14 summarizes the chosen parameters and measurement values. The storage modulus G′ and loss modulus G″ are calculated from the complex modulus G, which is recorded by the oscillating rheometer. The loss factor tan δ is further calculated by G″ divided by G′.

[2] = Hydrogel formation of peptide-starPEG conjugates with 14-kDa-heparin; details: peptide coupled to 10-kDa starPEG; 5 mM 14-kDa-heparin + 5 mM (2.5 mM) conjugate, 50 μl 1×PBS pH 7.4
Description: Following is the description of the production of the hydrogel networks. Hereby 14-kDa-heparin (25 mM, 2.5 mM) and peptide-starPEG conjugates (6.25 mM, 3.125 mM) were dissolved in physiologic phosphate buffer solution (1×PBS) water or cell culture medium with 2% fetal bovine serum (FBS). These solutions were dissolved in a ratio of 1:4 heparin:peptide-starPEG-conjugate by obtaining […] or 5 mM 14-kDa-heparin and 2.5 mM or 5 mM peptide-starPEG. The ligand/mol ratio was 2:1, 1:1 and 1:5 relative to the mol ratio of 14-kDa-heparin and the peptide-starPEG-conjugate. The mixtures were incubated within a time frame of one hour to overnight at […]. The gelation time spanned from present up to several hours depending on the applied peptide motif.
(§1) ATIII is a heparin-binding peptide known from the literature. All peptides are connected to a four-armed, maleimide functionalized 10-kDa-polyethylene glycol (starPEG). The hydrogel formation was tested in a 50 μI mixture, which contains 5 mM 14-kDa-heparin and 5 mM (2.5 mM) peptide-starPEG conjugate in phosphate buffer solution (1×PBS, pH 7.4). The deformation and penetration speed was analyzed through centrifuging the hydrogel in a 45° table centrifuge with 275 μm metal beads added to the surface. The deformation of the surface and the penetration of the metal beads were monitored in dependence on the applied force.
In addition to the peptide motif, a tryptophan was labeled with a one letter code W, for UV detection and purification and a cysteine, marked with the one letter code C, bound to the N-terminal end of the peptide with two glycine. By applying the Michael-addition-chemistry, the cysteine was coupled to the maleimide-functionalized 10-kDa-starPEG. […] This is the largest library of peptide-polymer-conjugates, for which each of the oligosaccharide dependent hydrogel formation was analyzed. To analyze the formation of hydrogels, all peptide-starPEG-conjugates were each mixed with 14-kDa-heparin in 50 μI phosphate buffer (1×PBS) to a final concentration of 5 mM. […]

[3] = High-throughput centrifuge analysis of mechanical properties of the hydrogels (surface deformation, metal bead penetration); details: for Deformation speed: 50 μl 1×PBS, 45° centrifuge; for Penetration speed: 275 μm metal beads
Description: as §1
A comparative high-throughput analysis was performed regarding the mechanical properties of the hydrogels. In order to provide a fast high-throughput method for comparing small amounts of hydrogel, a tabletop centrifuge (5424R, Eppendorf, Hamburg, Germany) was used. For this purpose, 50 μl of the hydrogel were formed by mixing the peptide-starPEG-conjugates and 14-kDa-heparin in phosphate buffer (1×PBS, pH 7.4) to a final concentration of 5 mM (once 2.5 mM for KA7-starPEG). The mixture was incubated in 0.2 ml reaction vessels overnight. The deformation of the hydrogel surface was determined in reference to the 45° centrifuge rotor and the penetration of 275 μm metal beads in dependence on the force that has to be produced by the centrifuge. All experiments were repeated three times.
Hereby FIGS. 5A and B show a deformation of the surface of the 50 μl hydrogel in a 0.2 ml reaction tube, more specifically FIG. 5A below the speed required for deforming the surface, and FIG. 5B at the speed required for deforming the surface. FIG. 5C is a schematic representation of the penetration of a small spheres through 50 μl hydrogel in a 0.2 ml reaction tube depending on the force exerted by the 45° centrifuge.
The hydrogels were formed by mixing peptide-starPEG-conjugate and 14-kDa-heparin at 5 mM final concentration in 50 μl phosphate buffer (1×PBS). The analysis was performed by centrifuging the hydrogels in a 45° tabletop centrifuge with 275 μm metal beads on the gel surface. The deformation of the surface and the penetration of the spheres were recorded in dependence on the exerted force.

[4] = Stability of formed hydrogels against different solvents; details: 24° C., at least three days
Description: In order to test the strength of the interaction between the peptide motif and the 14-kDa-heparin the formed hydrogels were tested with regard to different solvents. […] For this the peptide-starPEG-conjugates were mixed with 14 kDa-heparin in 50 μl in physiological phosphate buffer solution (1×PBS) to a final concentration of respectively 5 mM. Each solvent, i.e., physiological phosphate buffer solution (1×PBS), Milli-0-water, 1 M hydrochloric acid (HCl) 1 M sodium hydroxide solution (NaOH), saturated sodium chloride solution (NaCl), dimethyl sulfoxide (DMSO), ethanol and cell culture medium with 2% fetal bovine serum (FBS) were respectively added as 200 μl supernatant to the hydrogel. The hydrogel was incubated at a room temperature of 24° C. and the supernatants where exchanged every day for at least three days. All experiments were performed three times. Under none of the tested conditions the KA7-hydrogel could be destroyed. […] 2,2,2-trifuourethanlol (TFE) is known to destroy any type of secondary structures.

[5] = Hydrogel formation in different solvents; details: 5 mM conjugate + 5 mM 14-kDa-heparin
Description: Three respective different cases were tested in the hydrogel-formation stability test. […] The hydrogels were formed by mixing the final concentrations of respectively 5 mM peptide-starPEG-conjugate and 5 mM 14-kDa-heparin in 50 μl physiological phosphate buffer solution (1×PBS), Milli-Q-water or cell culture medium with 2% fetal bovine serum (FBS). The stability of the hydrogels was tested with the same solvent in which it was formed in 200 μl supernatant. The hydrogels were incubated at room temperature (24° C.), the supernatants were changed every day for at least three days in a row and the result after at least 3 days analyzed.

[6] = te 120 min, sulfate sodium salt
[7] = 2 mM KA7-starPEG + 2 mM 5DexS or 0.02 mM 500DexS, te 120 min, sulfate sodium salt
[8] = 1 mM KA7-RGDSP-starPEG(40 kDa) + 1 mM oligosaccharide, te 120 min
[9] = 2 mM KA7-RGDSP-starPEG(10 kDa) + 2 mM oligosaccharide, te 110 min (5DexS), 120 min (Hep)
[10] = 2 mM KA7-starPEG(10 kDa) + 2 mM oligosaccharide, te 120 min
[11] = 1.5 mM KA7-starPEG(10 kD) + 3 mM cyclodextrin sulfate, te 120 min
[12] = 5 mM peptide-starPEG + 5 mM 14-kDa-heparin
[13] = supernatant 1xPBS, 5 mM conjugate + 5 mM heparin gel
[14] = supernatant Cell culture medium with 2% FBS
[15] = supernatant Saturated NaCl solution
[16] = Cell culture medium with 2% FBS
[17] = PBS, 50 μl, result after at least 3 days
[18] = 2.5 mM peptide-starPEG + 5 mM 14-kDa-heparin

In the case of “Dextran sulfate sodium salt [Peptide 500DexS]”, the “Loss Factor at te” value [1, 6] is reported as 0.0307, the “Storage modulus G′ at te” value [1, 6] is reported as 1,658 Pa and the “Loss Factor at time point” value [1, 7] is reported as 0.0887. For the same substance, the “Storage modulus G′ at time point” value [1, 7] was 34,694 Pa.

With “Dextran sulfate sodium salt [Peptide 5DexS]” the “Loss Factor at te” value [1, 6] was 0.00681, the “Storage modulus G′ at te” value [1, 6] was 2,295 Pa and the “Loss Factor at time point” value [1, 8] was 0.0105. For the same substance, the “Storage moduli G′” value [1] was 14.5 kPa, the “Loss Factor at time point” value [1, 9] was 0.00611 and the “Storage modulus G′ at time point” value [1, 9] was 14,486 Pa. For the same substance, the “Loss Factor at time point” value [1, 7] was 0.132, the “Storage modulus G′ at time point” value [1, 7] was 76,977 Pa and the “Loss Factor at time point” value [1, 10] was 0.132. For the same substance, the “Storage modulus G′ at time point” value [1, 10] was 76,977 Pa.

With “CWGGKAKAKAKaKAKAKA (CWGGKAKAKAK[dA]KAKAKA) [KA7-1a]” the “Hydrogel formation with heparin” value [2] was “doesn't form a hydrogel with heparin”.

In the case of β-cyclodextrin sulfated sodium salt, the “Loss Factor at time point” value [1, 11] is reported as 0.062 and the “Storage modulus G′ at time point” value [1, 11] is reported as 33,169 Pa.

For “CWGGKAFAKLAARLYRKA (Human) [ATIII, reference compound]”, the Deformation speed [3, 12] was “gel shrank”.

For CWGGRARARARARARARA [RA7], the Deformation speed [3, 12] was 1069 +/- 579 m/s^2, the Penetration speed [3, 12] was 1952 +/- 491 m/s^2 and the “Stability of hydrogel against supernatant” value (shortened to “Stability of hydrogel”) ([4]; supernatant 1M HCl) was “Stable; hydrogel was”. For the same substance, the “Stability of hydrogel” value ([4]; supernatant 1M NaOH) was “Stable”, the “Stability of hydrogel” value [4, 13] was “Stable; the surface” and the “Stability of hydrogel” value [4, 14] was “Stable”. The “Stability of hydrogel” value ([4]; supernatant DMSO) was “Stable”, the “Stability of hydrogel” value ([4]; supernatant Ethanol) was “Stable” and the “Stability of hydrogel” value [4, 15] was “Not stable; hydrogel”. The “Stability of hydrogel” value ([4]; supernatant Water) was “Stable”, the “Hydrogel formation in solvent” value [5, 16] was “formed” and the “Hydrogel formation in solvent” value [5, 17] was “formed”. The “Hydrogel formation in solvent” value ([5]; water (Milli-Q)) was “formed”.

With γ-cyclodextrin sulfated sodium salt the “Loss Factor at time point” value [1, 11] was 0.0355 and the “Storage modulus G′ at time point” value [1, 11] was 30,749 Pa.

In the case of “CWGGKaKaKaKaKaKaKa (CWGGK[dA]K[dA]K[dA]K[dA]K[dA]K[dA]K[dA]) [KdA7]”, the “Hydrogel formation with heparin” value [2] is reported as “neither formation of a hydrogel”.

With “CWGGkAkAkAkAkAkAkA (CWGG[dK]A[dK]A[dK]A[dK]A[dK]A[dK]A[dK]A) [dKA7]” the “Hydrogel formation with heparin” value [2] was “neither formation of a hydrogel”.

For CWGGKAKAKAKAKAKAKA [KA7], the Deformation speed [3, 18] was 43998 +/- 3139 m/s^2, the Penetration speed [3, 18] was 72780 +/- 6926 m/s^2 and the Deformation speed [3, 12] was >148317 m/s^2. For the same substance, the Penetration speed [3, 12] was 138919 +/- 16275 m/s^2, the “Stability of hydrogel” value ([4]; supernatant 1M HCl) was “Stable” and the “Stability of hydrogel” value ([4]; supernatant 1M NaOH) was “Stable”. For the same substance, the “Stability of hydrogel” value [4, 13] was “Stable”, the “Stability of hydrogel” value [4, 14] was “Stable” and the “Stability of hydrogel” value ([4]; supernatant DMSO) was “Stable”. The “Stability of hydrogel” value ([4]; supernatant Ethanol) was “Stable”, the “Stability of hydrogel” value [4, 15] was “Stable” and the “Stability of hydrogel” value ([4]; supernatant Water) was “Stable”. For the same substance, the “Hydrogel formation in solvent” value [5, 16] was “formed”, the “Hydrogel formation in solvent” value [5, 17] was “formed” and the “Hydrogel formation in solvent” value ([5]; water (Milli-Q)) was “formed”.

With Heparin [reference compound] the “Loss Factor at time point” value [1, 8] was 0.0486, the “Storage modulus G′ at time point” value [1, 8] was 811 Pa and the “Storage moduli G′” value [1] was 12.1 kPa. For the same substance, the “Loss Factor at time point” value [1, 9] was 0.0193, the “Storage modulus G′ at time point” value [1, 9] was 12,104 Pa and the “Loss Factor at time point” value [1, 10] was 0.0131. For the same substance, the “Storage modulus G′ at time point” value [1, 10] was 1,849 Pa and the “Factor by which storage modulus G′ is lower than for 5DexS gels” value ([1]; 2 mM KA7-starPEG, after 120 min of gelation) was 40.

With α-cyclodextrin sulfated sodium salt the “Loss Factor at time point” value [1, 11] was 0.0641 and the “Storage modulus G′ at time point” value [1, 11] was 30,561 Pa.

In the case of CWGGRARARARARA [RA5], the Deformation speed [3, 12] is reported as >687 m/s^2 and the Penetration speed [3, 12] is reported as >687 m/s^2.
